Among the data in the Human Domainome abundance scans (Beltran et al. 2025) are abundance fitness values, retold here.

± gives the uncertainty stated by the source.

Sequences and labels used below:
B1: POU domain, class 3, transcription factor 1, residues 247 to 324; numbered along this chain, Q03052 (parent)
chain: EDAPSSDDLEQFAKQFKQRRIKLGFTQADVGLALGTLYGNVFSQTTICRFEALQLSFKNMCKLKPLLNKWLEETDSSS

This series covers variants of B1. Description: abundance fitness (aPCA) (normalised: wild type 0, dead -1); higher = more abundant; growth selection in yeast, the domain comes from the species named. Particulars: Homo sapiens.
Turning to EDAPSSDDLEQFAKQFKQRRIKLGFTQADVGLALGTLYGNVFSQTTICRFELLQLSFKNMCKLKPLLNKWLEETDSSS, the abundance fitness is -0.275 ± 0.084. As to EDAPSSDDLEQFAKQFKQRRIKLGFTQADVGLALGTLYGNVFSQTTICRFECLQLSFKNMCKLKPLLNKWLEETDSSS, the abundance fitness was -0.362 ± 0.26. Then EDAPSSDDLEQFAKQFKQRRIKLGFTQADVGLALGTLYGNVFSQTTICRFEKLQLSFKNMCKLKPLLNKWLEETDSSS, with 0.163 ± 0.075. On to EDAPSSDDLEQFAKQFKQRRIKLGFTQADVGLALGTLYGNVFSQTTICRFEVLQLSFKNMCKLKPLLNKWLEETDSSS, for which the abundance fitness was -1.02 ± 0.16. Under EDAPSSDDLEQFAKQFKQRRIKLGFTQADVGLALGTLYGNVFSQTTICRFEDLQLSFKNMCKLKPLLNKWLEETDSSS stands 0.041 ± 0.1.

Consider EDAPSSDDLEQFAKQFKQRRIKLGFTQADVGLALGTLYGNVFSQTTICRFEILQLSFKNMCKLKPLLNKWLEETDSSS, for which the abundance fitness is -0.56 ± 0.28.

Consider EDAPSSDDLEQFAKQFKQRRIKLGFTQADVGLALGTLYGNVFSQTTICRFEHLQLSFKNMCKLKPLLNKWLEETDSSS, for which the abundance fitness is -0.141 ± 0.17. On to EDAPSSDDLEQFAKQFKQRRIKLGFTQADVGLALGTLYGNVFSQTTICRFEGLQLSFKNMCKLKPLLNKWLEETDSSS, for which the abundance fitness was -0.156 ± 0.046. Then EDAPSSDDLEQFAKQFKQRRIKLGFTQADVGLALGTLYGNVFSQTTICRFEMLQLSFKNMCKLKPLLNKWLEETDSSS, with -0.341 ± 0.12; and EDAPSSDDLEQFAKQFKQRRIKLGFTQADVGLALGTLYGNVFSQTTICRFEWLQLSFKNMCKLKPLLNKWLEETDSSS, with -0.728 ± 0.19. Take EDAPSSDDLEQFAKQFKQRRIKLGFTQADVGLALGTLYGNVFSQTTICRFERLQLSFKNMCKLKPLLNKWLEETDSSS: the abundance fitness is -0.001 ± 0.051.

For the variant EDAPSSDDLEQFAKQFKQRRIKLGFTQADVGLALGTLYGNVFSQTTICRFENLQLSFKNMCKLKPLLNKWLEETDSSS, the abundance fitness was found to be 0.23 ± 0.11. Take EDAPSSDDLEQFAKQFKQRRIKLGFTQADVGLALGTLYGNVFSQTTICRFEPLQLSFKNMCKLKPLLNKWLEETDSSS: the abundance fitness is -0.929 ± 0.4.

On to EDAPSSDDLEQFAKQFKQRRIKLGFTQADVGLALGTLYGNVFSQTTICRFEALTLSFKNMCKLKPLLNKWLEETDSSS, for which the abundance fitness was -0.145 ± 0.064. On to EDAPSSDDLEQFAKQFKQRRIKLGFTQADVGLALGTLYGNVFSQTTICRFEALCLSFKNMCKLKPLLNKWLEETDSSS, for which the abundance fitness is -0.441 ± 0.15. With EDAPSSDDLEQFAKQFKQRRIKLGFTQADVGLALGTLYGNVFSQTTICRFEALPLSFKNMCKLKPLLNKWLEETDSSS, the abundance fitness is -0.62 ± 0.15.

In the case of EDAPSSDDLEQFAKQFKQRRIKLGFTQADVGLALGTLYGNVFSQTTICRFEALLLSFKNMCKLKPLLNKWLEETDSSS, the abundance fitness was -0.376 ± 0.085. EDAPSSDDLEQFAKQFKQRRIKLGFTQADVGLALGTLYGNVFSQTTICRFEALALSFKNMCKLKPLLNKWLEETDSSS: the abundance fitness was -0.089 ± 0.063. In the case of EDAPSSDDLEQFAKQFKQRRIKLGFTQADVGLALGTLYGNVFSQTTICRFEALKLSFKNMCKLKPLLNKWLEETDSSS, the abundance fitness was -0.098 ± 0.079.

With EDAPSSDDLEQFAKQFKQRRIKLGFTQADVGLALGTLYGNVFSQTTICRFEALILSFKNMCKLKPLLNKWLEETDSSS, the abundance fitness was -0.316 ± 0.14. For EDAPSSDDLEQFAKQFKQRRIKLGFTQADVGLALGTLYGNVFSQTTICRFEALFLSFKNMCKLKPLLNKWLEETDSSS, the abundance fitness was -0.858 ± 0.34.

Take EDAPSSDDLEQFAKQFKQRRIKLGFTQADVGLALGTLYGNVFSQTTICRFEALELSFKNMCKLKPLLNKWLEETDSSS: the abundance fitness came to 0.011 ± 0.064.

As to EDAPSSDDLEQFAKQFKQRRIKLGFTQADVGLALGTLYGNVFSQTTICRFEALHLSFKNMCKLKPLLNKWLEETDSSS, the abundance fitness is -0.035 ± 0.14. As to EDAPSSDDLEQFAKQFKQRRIKLGFTQADVGLALGTLYGNVFSQTTICRFEALNLSFKNMCKLKPLLNKWLEETDSSS, the abundance fitness is -0.187 ± 0.096. As for EDAPSSDDLEQFAKQFKQRRIKLGFTQADVGLALGTLYGNVFSQTTICRFEALRLSFKNMCKLKPLLNKWLEETDSSS, the abundance fitness was -0.195 ± 0.051.

For the variant EDAPSSDDLEQFAKQFKQRRIKLGFTQADVGLALGTLYGNVFSQTTICRFEALWLSFKNMCKLKPLLNKWLEETDSSS, the abundance fitness was -0.669 ± 0.11. Turning to EDAPSSDDLEQFAKQFKQRRIKLGFTQADVGLALGTLYGNVFSQTTICRFEALVLSFKNMCKLKPLLNKWLEETDSSS, the abundance fitness is -0.497 ± 0.1. With EDAPSSDDLEQFAKQFKQRRIKLGFTQADVGLALGTLYGNVFSQTTICRFEALQCSFKNMCKLKPLLNKWLEETDSSS, the abundance fitness was -0.064 ± 0.081. Then EDAPSSDDLEQFAKQFKQRRIKLGFTQADVGLALGTLYGNVFSQTTICRFEALQASFKNMCKLKPLLNKWLEETDSSS, with -0.54 ± 0.098. Then EDAPSSDDLEQFAKQFKQRRIKLGFTQADVGLALGTLYGNVFSQTTICRREALQLSFKNMCKLKPLLNKWLEETDSSS, with -0.785 ± 0.078. As for EDAPSSDDLEQFAKQFKQRRIKLGFTQADVGLALGTLYGNVFSQTTICRQEALQLSFKNMCKLKPLLNKWLEETDSSS, the abundance fitness was -0.498 ± 0.18.

As to EDAPSSDDLEQFAKQFKQRRIKLGFTQADVGLALGTLYGNVFSQTTICRYEALQLSFKNMCKLKPLLNKWLEETDSSS, the abundance fitness was -0.089 ± 0.22. Then EDAPSSDDLEQFAKQFKQRRIKLGFTQADVGLALGTLYGNVFSQTTICRWEALQLSFKNMCKLKPLLNKWLEETDSSS, with -0.742 ± 0.1; and EDAPSSDDLEQFAKQFKQRRIKLGFTQADVGLALGTLYGNVFSQTTICRSEALQLSFKNMCKLKPLLNKWLEETDSSS, with -0.802 ± 0.11; and EDAPSSDDLEQFAKQFKQRRIKLGFTQADVGLALGTLYGNVFSQTTICRVEALQLSFKNMCKLKPLLNKWLEETDSSS, with -0.561 ± 0.075.
